Experimental data reported in PMC7481404.

Molecular target: PARK2 (UniProt O60260)
Assay: co-IP of Flag-PARK2 and Myc-BCL-2
Conditions: reference: wild type Myc-BCL-2; sites S70

Substance: BCL-2 (from UniProt P10415) S70A
- binding against the reference: lost
